The values that follow come from the supplement of paper PMC10567573.

To fix the notation:
B1: KCNG1 (parent)
chain: AVNLSVSTLPSLREEEEQVRAHAP
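Also: lentivirally expressed fusions sorted by FACS into six bins by GFP to DsRed ratio, PSI derived from sequencing read proportions per bin multiplied by bin number.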

Variants of B1 are the subject of this series. Description: protein stability index of a GFP-peptide fusion (GPS, HEK-293T) (PSI 1-6); higher = more stable. As to conditions: c terminus: a fixed tail appended.
In the case of AVNLSVSTLPSGREEEEQVRAHAP [L12G], the protein stability index came to 5.21.

For AVNLSVSTLPSDREEEEQVRAHAP [L12D], the protein stability index worked out at 5.41.

For AVNLSVSTLPSEREEEEQVRAHAP [L12E], the protein stability index amounted to 5.62.

Take AVNLSVSTLPSFREEEEQVRAHAP [L12F]: the protein stability index was determined as 4.59.

As for AVNLSVSTLLSLREEEEQVRAHAP [P10L], the protein stability index was determined as 4.06.

As to AVNLSVSTLYSLREEEEQVRAHAP [P10Y], the protein stability index was determined as 4.03.

For AVNLSVSTLHSLREEEEQVRAHAP [P10H], the protein stability index is 4.63.

Consider AVNLSVSTLDSLREEEEQVRAHAP [P10D], for which the protein stability index came out at 5.06.

Take AVNLSVSTLQSLREEEEQVRAHAP [P10Q]: the protein stability index stood at 5.05.

For the variant AVNLSVSTLVSLREEEEQVRAHAP [P10V], the protein stability index was determined as 4.61.

AVNLSVSTLWSLREEEEQVRAHAP [P10W]: the protein stability index amounted to 4.05.

For AVNLSVSTLNSLREEEEQVRAHAP [P10N], the protein stability index came to 4.7.

For the variant AVNLSVSTLFSLREEEEQVRAHAP [P10F], the protein stability index worked out at 3.5.

Regarding AVNLSVSTLASLREEEEQVRAHAP [P10A], the protein stability index was found to be 4.59.

As for AVNLSVSTLCSLREEEEQVRAHAP [P10C], the protein stability index came to 4.35.

Take AVNLSVSTLGSLREEEEQVRAHAP [P10G]: the protein stability index is 4.71.

For AVNLSVSTLRSLREEEEQVRAHAP [P10R], the protein stability index turned out to be 4.29.

For AVNLSVSTLESLREEEEQVRAHAP [P10E], the protein stability index turned out to be 5.04.

As for AVNLSVSTLSSLREEEEQVRAHAP [P10S], the protein stability index stood at 4.62.

For the variant AVNLSVSTLMSLREEEEQVRAHAP [P10M], the protein stability index worked out at 4.28.

Turning to AVNLSVSTLKSLREEEEQVRAHAP [P10K], the protein stability index turned out to be 4.74.

AVNLSVSTLISLREEEEQVRAHAP [P10I]: the protein stability index is 3.67.

Consider AVNLSVSTLTSLREEEEQVRAHAP [P10T], for which the protein stability index came to 4.49.

AVNLSVATLPSLREEEEQVRAHAP [S7A]: the protein stability index came out at 4.75.

AVNLSVVTLPSLREEEEQVRAHAP [S7V]: the protein stability index amounted to 4.71.

Take AVNLSVRTLPSLREEEEQVRAHAP [S7R]: the protein stability index stood at 4.93.

Take AVNLSVMTLPSLREEEEQVRAHAP [S7M]: the protein stability index is 4.53.

AVNLSVETLPSLREEEEQVRAHAP [S7E]: the protein stability index came to 4.47.

Regarding AVNLSVPTLPSLREEEEQVRAHAP [S7P], the protein stability index is 5.09.

For AVNLSVTTLPSLREEEEQVRAHAP [S7T], the protein stability index worked out at 4.95.

Turning to AVNLSVLTLPSLREEEEQVRAHAP [S7L], the protein stability index is 3.62.

Regarding AVNLSVITLPSLREEEEQVRAHAP [S7I], the protein stability index was 3.67.

With AVNLSVNTLPSLREEEEQVRAHAP [S7N], the protein stability index is 5.02.

Turning to AVNLSVWTLPSLREEEEQVRAHAP [S7W], the protein stability index is 3.68.

As for AVNLSVGTLPSLREEEEQVRAHAP [S7G], the protein stability index is 5.18.

Regarding AVNLSVHTLPSLREEEEQVRAHAP [S7H], the protein stability index was 5.03.

On to AVNLSVDTLPSLREEEEQVRAHAP [S7D], for which the protein stability index turned out to be 4.8.

As for AVNLSVYTLPSLREEEEQVRAHAP [S7Y], the protein stability index is 4.19.

As to AVNLSVKTLPSLREEEEQVRAHAP [S7K], the protein stability index was determined as 4.94.

Take AVNLSVQTLPSLREEEEQVRAHAP [S7Q]: the protein stability index came to 4.91.

As to AVNLSVFTLPSLREEEEQVRAHAP [S7F], the protein stability index stood at 4.11.

Consider AVNLSVCTLPSLREEEEQVRAHAP [S7C], for which the protein stability index was determined as 4.41.

As for AVNLPVSTLPSLREEEEQVRAHAP [S5P], the protein stability index was 5.36.

Turning to AVNLLVSTLPSLREEEEQVRAHAP [S5L], the protein stability index stood at 3.82.

For the variant AVNLHVSTLPSLREEEEQVRAHAP [S5H], the protein stability index stood at 4.71.

In the case of AVNLYVSTLPSLREEEEQVRAHAP [S5Y], the protein stability index was determined as 4.59.

As for AVNLKVSTLPSLREEEEQVRAHAP [S5K], the protein stability index was found to be 4.47.

On to AVNLGVSTLPSLREEEEQVRAHAP [S5G], for which the protein stability index is 4.93.

Turning to AVNLWVSTLPSLREEEEQVRAHAP [S5W], the protein stability index stood at 3.31.

As for AVNLMVSTLPSLREEEEQVRAHAP [S5M], the protein stability index turned out to be 4.49.

On to AVNLQVSTLPSLREEEEQVRAHAP [S5Q], for which the protein stability index turned out to be 4.2.

In the case of AVNLVVSTLPSLREEEEQVRAHAP [S5V], the protein stability index worked out at 4.1.

Consider AVNLIVSTLPSLREEEEQVRAHAP [S5I], for which the protein stability index came out at 3.86.

For the variant AVNLRVSTLPSLREEEEQVRAHAP [S5R], the protein stability index was 3.29.

With AVNLTVSTLPSLREEEEQVRAHAP [S5T], the protein stability index is 4.59.

With AVNLNVSTLPSLREEEEQVRAHAP [S5N], the protein stability index is 4.03.

On to AVNLSVSTLPSLRWEEEQVRAHAP [E14W], for which the protein stability index came out at 3.9.

Take AVNLSVSTLPSLRNEEEQVRAHAP [E14N]: the protein stability index amounted to 4.46.

As to AVNLSVSTLPSLRVEEEQVRAHAP [E14V], the protein stability index amounted to 4.39.

Take AVNLSVSTLPSLRTEEEQVRAHAP [E14T]: the protein stability index stood at 4.54.

Take AVNLSVSTLPSLRYEEEQVRAHAP [E14Y]: the protein stability index was found to be 4.34.

Consider AVNLSVSTLPSLRPEEEQVRAHAP [E14P], for which the protein stability index is 4.8.

On to AVNLSVSTLPSLRKEEEQVRAHAP [E14K], for which the protein stability index was determined as 4.3.

AVNLSVSTLPSLRREEEQVRAHAP [E14R]: the protein stability index was 4.24.

Turning to AVNLSVSTLPSLRAEEEQVRAHAP [E14A], the protein stability index was found to be 4.39.

Take AVNLSVSTLPSLRFEEEQVRAHAP [E14F]: the protein stability index was 3.56.

With AVNLSVSTLPSLRQEEEQVRAHAP [E14Q], the protein stability index stood at 4.87.

Consider AVNLSVSTLPSLRLEEEQVRAHAP [E14L], for which the protein stability index is 4.51.

Turning to AVNLSVSTLPSLRSEEEQVRAHAP [E14S], the protein stability index is 4.98.

AVNLSVSTLPSLRIEEEQVRAHAP [E14I]: the protein stability index is 4.37.

As for AVNLSVSTLPSLRDEEEQVRAHAP [E14D], the protein stability index turned out to be 4.96.

On to AVNLSVSTLPSLRMEEEQVRAHAP [E14M], for which the protein stability index stood at 4.11.

As to AVNLSVSTLPSLRGEEEQVRAHAP [E14G], the protein stability index amounted to 4.56.

As to AVNLSVSTLPSLRHEEEQVRAHAP [E14H], the protein stability index was found to be 4.56.

For AVNLSVSTLPSLRCEEEQVRAHAP [E14C], the protein stability index came to 4.16.

For the variant AVNLSVSTLPELREEEEQVRAHAP [S11E], the protein stability index is 5.14.

Turning to AVNLSVSTLPYLREEEEQVRAHAP [S11Y], the protein stability index stood at 4.54.

Take AVNLSVSTLPILREEEEQVRAHAP [S11I]: the protein stability index is 4.79.

In the case of AVNLSVSTLPQLREEEEQVRAHAP [S11Q], the protein stability index was 5.01.

As to AVNLSVSTLPKLREEEEQVRAHAP [S11K], the protein stability index was 5.13.

As to AVNLSVSTLPWLREEEEQVRAHAP [S11W], the protein stability index amounted to 4.35.

Turning to AVNLSVSTLPLLREEEEQVRAHAP [S11L], the protein stability index was found to be 4.75.

As to AVNLSVSTLPDLREEEEQVRAHAP [S11D], the protein stability index came to 5.02.

Turning to AVNLSVSTLPFLREEEEQVRAHAP [S11F], the protein stability index is 4.45.

As for AVNLSVSTLPRLREEEEQVRAHAP [S11R], the protein stability index was 4.88.

Turning to AVNLSVSTLPALREEEEQVRAHAP [S11A], the protein stability index turned out to be 5.43.

AVNLSVSTLPMLREEEEQVRAHAP [S11M]: the protein stability index is 4.54.

AVNLSVSTLPPLREEEEQVRAHAP [S11P]: the protein stability index was found to be 4.93.

Turning to AVNLSVSTLPVLREEEEQVRAHAP [S11V], the protein stability index worked out at 4.83.

Take AVNLSVSTLPHLREEEEQVRAHAP [S11H]: the protein stability index turned out to be 5.07.

AVNLSVSTLPTLREEEEQVRAHAP [S11T]: the protein stability index was 4.84.

In the case of AVNLSVSTLPGLREEEEQVRAHAP [S11G], the protein stability index stood at 3.95.

As to AVNLSVSTLPCLREEEEQVRAHAP [S11C], the protein stability index amounted to 4.3.

As to AVNLSVSTLPNLREEEEQVRAHAP [S11N], the protein stability index came out at 4.95.
